Like-named read-outs stand apart in the source and are kept apart here. Each block holds one substance with its values, some of them ahead of it.
Assays:
[1] = molecular target: CRF receptors on rat anterior pituitary cells (rat)
[2] = molecular target: CRF receptors on rat anterior pituitary cells (rat); remark: listed apart in the source
[3] = molecular target: CRF receptors on rat anterior pituitary cells (rat); remark: listed apart in the source
[4] = molecular target: CRF receptors on rat anterior pituitary cells (rat); remark: listed apart in the source
[5] = molecular target: CRF receptors on rat anterior pituitary cells (rat); remark: listed apart in the source
[6] = molecular target: CRF receptors on rat anterior pituitary cells (rat); remark: listed apart in the source
[7] = molecular target: CRF receptors on rat anterior pituitary cells (rat); remark: listed apart in the source
[8] = molecular target: CRF receptors on rat anterior pituitary cells (rat); remark: listed apart in the source
[9] = molecular target: CRF receptors on rat anterior pituitary cells (rat); remark: listed apart in the source
[10] = molecular target: CRF receptors on rat anterior pituitary cells (rat); remark: listed apart in the source
[11] = molecular target: CRF receptors on rat anterior pituitary cells (rat); remark: listed apart in the source
[12] = molecular target: CRF receptors on rat anterior pituitary cells (rat); remark: listed apart in the source
[13] = molecular target: CRF receptors on rat anterior pituitary cells (rat); remark: listed apart in the source
[14] = molecular target: CRF receptors on rat anterior pituitary cells (rat); remark: listed apart in the source
[15] = molecular target: CRF receptors on rat anterior pituitary cells (rat); remark: listed apart in the source
[16] = molecular target: CRF receptors on rat anterior pituitary cells (rat); remark: listed apart in the source
[17] = molecular target: CRF receptors on rat anterior pituitary cells (rat); remark: listed apart in the source
[18] = molecular target: CRF receptors on rat anterior pituitary cells (rat); remark: listed apart in the source
[19] = molecular target: CRF receptors on rat anterior pituitary cells (rat); remark: listed apart in the source
[20] = molecular target: CRF receptors on rat anterior pituitary cells (rat); remark: listed apart in the source

in vitro biopotency: inhibition of ACTH secretion (times the Standard) [1]: 8.61
Substance: (bicyclo 20-23, 30-33) D-Phe^12, Nle^21,38, D-Ala^22, LyS^23,33, Glu^30, D-His^32 !-r/hCRF(12-41) (peptide)

in vitro biopotency: inhibition of ACTH secretion (times the Standard) [2]: 8.3
Substance: (bicyclo 20-23, 30-33) D-Phe^12, Nle^21,38, Lys^23,33, Glu^30 !-r/hCRF(12-41) (peptide)

in vitro biopotency: inhibition of ACTH secretion (times the Standard) [3]: 3.69
Substance: (cyclo 28-32) D-Phe^12, Nle^21,38, Glu^28, D-Gln^30, Lys^32 !-r/hCRF(12-41) (peptide)

in vitro biopotency: inhibition of ACTH secretion (times the Standard) [4]: 7.3
Substance: (cyclo 28-32) D-Phe^12, Nle^21,38, Glu^28, Lys^32 !-r/hCRF(12-41) (peptide)

in vitro biopotency: inhibition of ACTH secretion (times the Standard) [5]: 15
Substance: (cyclo 29-32) D-Leu^11, Nle^17, Glu^29, D-Ala^31, Lys^32 !-Sauvagine (11-40) (peptide)

in vitro biopotency: inhibition of ACTH secretion (times the Standard) [6]: 22
Substance: (cyclo 29-32) D-Leu^11, Nle^17, Glu^29, Lys^32 !-sauvagine(11-40) (peptide)

in vitro biopotency: inhibition of ACTH secretion (times the Standard) [7]: 26
Substance: (cyclo 29-33) D-Phe^12, Nle^21,38, Glu^29, D-His^32, Lys^33 -r/hCRF(12-41) (peptide)

in vitro biopotency: inhibition of ACTH secretion (times the Standard) [8]: 7.15
Substance: (cyclo 29-33) D-Phe^12, Nle^21,38, Glu^29, Lys^33 -r/hCRF(12-41) (peptide)

in vitro biopotency: inhibition of ACTH secretion (times Peptide IV) [9]: 2.22
Substance: (cyclo 30-33) Ac-Asp^9, D-Phe^2, Nle^21,38, CML^27, Glu^30, D-His^32, Lys^33 -r/hCRF(9-41) (peptide)

in vitro biopotency: inhibition of ACTH secretion (times the Standard) [10]: 13
Substance: (cyclo 30-33) Ac-Asp^9, D-Phe^12, CML^18,27, Nle^21,38, Glu^30, Lys^33 -r/hCRF(9-41) (peptide)

in vitro biopotency: inhibition of ACTH secretion (times Peptide IV) [11]: 1.2
Substance: (cyclo 30-33) Ac-Asp^9, D-Phe^12, Nle^21,38, CML^27, Glu^30, Lys^33 !-r/hCRF(9-41) (peptide)

in vitro biopotency: inhibition of ACTH secretion (times the Standard) [12]: 172
Substance: (cyclo 30-33) Ac-Asp^9, D-Phe^12, Nle^21,38, Glu^30, Lys^33 !-r/hCRF(9-41) (peptide)

in vitro biopotency: inhibition of ACTH secretion (times the Standard) [13]: 1.4
Substance: (cyclo 30-33) Ac-Asp^9, D-Phe^12, Nle^21, CML^27,37, Glu^30, Lys^33 -r/hCRF(9-41) (peptide)

in vitro biopotency: inhibition of ACTH secretion (times the Standard) [14]: 43
Substance: (cyclo 30-33) Ac-D-Phe^12, Nle^21,38, CML^27, Glu^30, D-His^32, Lys^33 !-r/hCRF(12-41) (peptide)

in vitro biopotency: inhibition of ACTH secretion (times Peptide IV) [15]: 1.65
Substance: (cyclo 30-33) Ac-D-Phe^12, Nle^21,38, CML^27, Glu^30, Lys^33 !-r/hCRF(12-41) (peptide)

in vitro biopotency: inhibition of ACTH secretion (times Peptide IV) [16]: 1.24
Substance: (cyclo 30-33) Ac-D-Phe^12, Nle^21,38, Glu^30, D-His^32, Lys^33 !-r/hCRF(12-41) (peptide)

in vitro biopotency: inhibition of ACTH secretion (times the Standard) [12]: 36.5
Substance: (cyclo 30-33) Ac-D-Phe^12, Nle^21,38, Glu^30, Lys^33 !-r/hCRF(12-41) (peptide)

in vitro biopotency: inhibition of ACTH secretion (times the Standard) [12]: 34
Substance: (cyclo 30-33) Ac-Leu^10, D-Phe^12, Nle^21,38, Glu^30, Lys^33 !-r/hCRF(10-41) (peptide)

in vitro biopotency: inhibition of ACTH secretion (times Peptide IV) [17]: 1.11
Substance: (cyclo 30-33) Ac-Thr^11, D-Phe^12, CML^15,27, Nle^21,38, Glu^30, D-His^32, Lys^33 -r/hCRF(11-41) (peptide)

in vitro biopotency: inhibition of ACTH secretion (times Peptide IV) [18]: 1.94
Substance: (cyclo 30-33) Ac-Thr^11, D-Phe^12, CML^18,27, Nle^21,38, Glu^30, D-His^32, Lys^33 !-r/hCRF(11-41) (peptide)

in vitro biopotency: inhibition of ACTH secretion (times Peptide IV) [19]: 1.4
Substance: (cyclo 30-33) Ac-Thr^11, D-Phe^12, Nle^21,38, CML^27, Glu^30, D-His^32, Lys^33 !-r/hCRF(11-41) (peptide)

in vitro biopotency: inhibition of ACTH secretion (times Peptide IV) [20]: 3.08
Substance: (cyclo 30-33) Ac-Thr^11, D-Phe^12, Nle^21,38, Glu^30, D-His^32, Lys^33 !-r/hCRF(11-41) (peptide)
